Data from US20100047232A1 (Genentech, published 2010).

B2: AP-Nogo66 (ligand, human, UniProt Q9NQC3 1055-1120, looked up)
chain: RIYKGVIQAIQKSDEGHPFRAYLESEVAISEELVQKYSNSALGHVNCTIKELRRLFLVDDLVDSLK
notes: also called AO-Nogo66; not shown: FLAG tag at the N-terminus; human placental alkaline phosphatase (AP)

Key:
AP-Nogo66 [1] = biological target: B2; assay: expression cloning, AP-fusion bait (20-50 nM) on COS7 cells transfected with human cDNA pools
Excerpt: (§1) To identify novel receptors for inhibitory myelin proteins, an expression cloning approach was taken. As bait, constructs were generated that fused Alkaline Phosphatase (AP) to the N- and/or C-terminus of the following characterized myelin inhibitors (human cDNA used): Nogo66, two additional inhibitory domains of NogoA (NiRD2 and NiG20) (Oertle T, J. Neurosci. 2003, 23(13): 5393-406), MAG, and OMgp. These constructs were transfected into 293 cells to produce conditioned medium (in DMEM/2% FBS) containing the bait proteins. The cDNA library used in the screen was comprised of full-length human cDNA clones in expression-ready vectors generated by Origene. These cDNAs were compiled, arrayed, and pooled. Pools of approximately 100 cDNA's were transiently transfected into COS7 cells.
(§2) In particular, on Day 1, COS7 cells were plated at a density of 85,000 cells per well in 12-well plates. On Day 2, 1 mg of pooled cDNA's were transfected per well using the lipid-based transfection reagent FuGENE 6 (Roche). On Day 4, screening was performed. […] The cells were washed once in AP Buffer (100 mM NaCl, 5 mM MgCl₂, 100 mM Tris pH 9.5), and incubated in chromogenic substrate (Western Blue, Promega), and analyzed for presence of reaction product one hour after incubation, and again after overnight incubation. […]

[2] = biological target: T1, Nogo Receptor (hit from the human cDNA library) (human, UniProt Q9BZR6 27-447); assay: as above
T1 construct: whole, on cells; also called NgR; NgR1
T1 sequence (looked up): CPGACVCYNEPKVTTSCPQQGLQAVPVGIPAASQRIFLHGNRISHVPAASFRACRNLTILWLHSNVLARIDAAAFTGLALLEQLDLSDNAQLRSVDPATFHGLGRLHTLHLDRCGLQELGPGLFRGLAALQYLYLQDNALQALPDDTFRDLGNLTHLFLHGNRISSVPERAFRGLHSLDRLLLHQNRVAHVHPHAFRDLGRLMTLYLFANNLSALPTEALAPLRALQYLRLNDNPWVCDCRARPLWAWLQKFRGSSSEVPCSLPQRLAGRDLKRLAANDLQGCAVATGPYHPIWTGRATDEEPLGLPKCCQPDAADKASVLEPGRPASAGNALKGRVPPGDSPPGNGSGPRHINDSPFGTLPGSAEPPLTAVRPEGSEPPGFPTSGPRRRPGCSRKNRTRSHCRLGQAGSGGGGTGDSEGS
Excerpt: as §1, §2

AP-Nogo66 [3] = biological target: B2; assay: AP activity on transfected COS cells after incubation with AP-Nogo66
Procedure: In particular, on Day 1, COS7 cells were plated at a density of 85,000 cells per well in 12-well plates. On Day 2, 1 mg of pooled cDNA's were transfected per well using the lipid-based transfection reagent FuGENE 6 (Roche). On Day 4, screening was performed. Briefly, culture medium was removed from cells and replaced with 0.5 ml of 293 cell-conditioned medium containing AP-fusion bait proteins (20-50 nM). Cells were incubated at room temperature for 90 minutes. The cells were then washed 3 times with phosphate-buffered saline (PBS), fixed for 7 minutes with 4% paraformaldehyde, washed 3 times in HEPES-buffered saline (HBS), and heat inactivated at 65° C. for 90 minutes to destroy endogenous AP activity. The cells were washed once in AP Buffer (100 mM NaCl, 5 mM MgCl₂, 100 mM Tris pH 9.5), and incubated in chromogenic substrate (Western Blue, Promega), and analyzed for presence of reaction product one hour after incubation, and again after overnight incubation. Positive cells were identified by the presence of dark blue precipitate over the surface of the membrane. Positive pools were further broken down to identify individual positive clones by subsequent rounds of screening.
To confirm Nogo66 binding to LILRB2 (SEQ ID NO: 2), and to test if Nogo66 binds to the murine orthologue PirB (SEQ ID NO: 1), binding assays similar to those described in Example 1 were carried out. […]

B1: LILRB2, transcript variant 1 (leukocyte immunoglobulin-like receptor, subfamily B, member 2) (receptor)
chain: QTGTIPKPTLWAEPDSVITQGSPVTLSCQGSLEAQEYRLYREKKSASWITRIRPELVKNGQFHIPSITWEHTGRYGCQYYSRARWSELSDPLVLVMTGAYPKPTLSAQPSPVVTSGGRVTLQCESQVAFGGFILCKEGEDEHPQCLNSQPHARGSSRAIFSVGPVSPNRRWSHRCYGYDLNSPYVWSSPSDLLELLVPGVSKKPSLSVQPGPVVAPGESLTLQCVSDVGYDRFVLYKEGERDLRQLPGRQPQAGLSQANFTLGPVSRSYGGQYRCYGAYNLSSEWSAPSDPLDILITGQIHGTPFISVQPGPTVASGENVTLLCQSWRQFHTFLLTKAGAADAPLRLRSIHEYPKYQAEFPMSPVTSAHAGTYRCYGSLNSDPYLLSHPSEPLELVVSGPSMGSSPPPTGPISTPAGPEDQPLTPTGSDPQSGLGRHLGVVIGILVAVVLLLLLLLLLFLILRHRRQGKHWTSTQRKADFQHPAGAVGPEPTDRGLQWRSSPAADAQEENLYAAVKDTQPEDGVEMDTRAAASEAPQDVTYAQLHSLTLRRKATEPPPSQEREPPAEPSIYATLAIH
notes: Expressed from full-length human cDNA in transfected COS7 cells; also called LIRB2; MIG10
B1: binds (AP-Nogo66 [1]).

B2: binds [2].

B3: PirB (paired-immunoglobulin-like receptor B), mouse (receptor)
chain: SLPKPILRVQPDSVVSRWTKVTFFCEETIGANEYRLYKDGKLYKTVTKNKQKPANKAEFSLSNVDLRNAGQYRCSYSTQYKSSGYSDPLELVVTGDYWTPSLLAQASPVVTSGGYVTLQCESWHNDHKFILTVEGPQKLSWTQDSQYNYSTRKYHALFSVGPVTPNQRWICRCYSYDRNRPYVWSPPSESVELLVSGNLQKPTIKAEPGPVIASKRAMTIWCQGNLDAEVYFLHNEGSQKTQSTQTLQQPGNKGKFFIPSMTRQHAGQYRCYCYGSAGWSQPSDTLELVVTGIYEHYKPRLSVLPSPVVTAGGNMTLHCASDFHYDKFILTKEDKKFGNSLDTEHISSSRQYRALFIIGPTTPTHTGTFRCYGYFKNAPQLWSVPSDLQQILISGLSKKPSLLTHQGHILDPGMTLTLQCYSDINYDRFALHKVGGADIMQHSSQQTDTGFSVANFTLGYVSSSTGGQYRCYGAHNLSSEWSASSEPLDILITGQLPLTPSLSVKPNHTVHSGETVSLLCWSMDSVDTFILSKEGSAQQPLRLKSKSHDQQSQAEFSMSAVTSHLSGTYRCYGAQNSSFYLLSSASAPVELTVSGPIETSTPPPTMSMPLGGLHMYLKALIGVSVAFILFLFILIFILLRRRHRGKFRKDVQKEKDLQLSSGAEEPITRKGELQKRPNPAAATQEESLYASVEDMQTEDGVELNSWTPPEEDPQGETYAQVKPSRLRKAGHVSPSVMSREQLNTEYEQAEEGQGANNQAAESGESQDVTYAQLCSRTLRQGAAASPLSQAGEAPEEPSVYATLAAARPEAVPKDVEQ
notes: Expressed from cDNA in transfected COS7 cells; also called murine orthologue PirB
B3: binds (AP-Nogo66 [3]).
